Experimental data taken from patent publication US20230109998A1, “MALARIA TRANSMISSION-BLOCKING VACCINES” (PATH, priority 2020, published 2023).

B1: tagged Pfs230D1+: N-terminal Pfs230 fragment (aa 552-731, N585Q) with C-terminal six histidine tag, SEQ ID NO: 2 (protein)
chain: DVGVDELDKIDLSYETTESGDTAVSEDSYDKYASQNTNKEYVCDFTDQLKPTESGPKVKKCEVKVNEPLIKVKIICPLKGSVEKLYDNIEYVPKKSPYVVLTKEETKLKEKLLSKLIYGLLISPTVNEKENNFKEGVIEFTLPPVVHKATVFYFICDNSKTEDDNKKGNRGIVEVYVEPYGHHHHHH
modifications: C-terminal His6 tag; Pfs230D1+
B2: non-tagged Pfs230D1+: N-terminal Pfs230 fragment (aa 552-731, N585Q) without C-terminal tag, SEQ ID NO: 1 (protein)
chain: DVGVDELDKIDLSYETTESGDTAVSEDSYDKYASQNTNKEYVCDFTDQLKPTESGPKVKKCEVKVNEPLIKVKIICPLKGSVEKLYDNIEYVPKKSPYVVLTKEETKLKEKLLSKLIYGLLISPTVNEKENNFKEGVIEFTLPPVVHKATVFYFICDNSKTEDDNKKGNRGIVEVYVEPYG
modifications: Pfs230D1+

Tests used:
[1] = tested on: anti-Pfs230 human monoclonal antibodies; test: Western blotting of purified Pfs230D1+ with anti-Pfs230 human monoclonal antibodies; assay type: binding; conditions: Western blot, 10 μg/mL antibody, 20 ng protein per lane, non-reducing conditions
Description: Samples were diluted with 4×LDS (Lithium dodecyl sulfate, Invitrogen) sample buffer, heated for 5 min at 90° C. and loaded in a final volume of 20 μL/well on SDS-PAGE gels (4-12% NuPAGE Bis-Tris, Invitrogen). Gels were run at 150-200 V for 35-50 min in 1×2-(N-morpholino) ethanesulfonic acid (MES) sodium dodecyl sulfate (SDS) running buffer and stained with SimplyBlue™ SafeStain (Invitrogen).
Following SDS-PAGE, proteins were transferred onto nitrocellulose membrane and Western blot procedure using anti-Pfs230 human monoclonal antibodies (non patent related). The human monoclonal antibodies were tested for reactivity at 10 μg/mL to 20 ng of Pfs230D1+(non-tagged or tagged) loaded per lane. A secondary goat anti-human antibody was used at 1/2000 dilution followed by development with BCIP/NBT substrate.

P. falciparum NF54 line = test: Rat immunization, ELISA of antiserum and standard membrane feeding assay (SMFA) of purified IgG; assay type: in vivo, Plasmodium falciparum; conditions: SD rats i.m., 20 μg antigen with composition of Example 6 as adjuvant; 250 ug/mL total IgG with complement in SMFA
Description: SD rats (Charles River Laboratories Japan) were immunized intramuscularly (i.m.) in the thigh muscles of the hind limb with 50 μL of a vaccine formulation consisting of 20 μg of an antigen, tagged Pfs230D1+ or non-tagged Pfs230D1+, and 8110 μg of the composition of Example 6 as an adjuvant (which corresponded to 10 μg of Compound A); 20 μg of tagged Pfs230D1+ alone for FIG. 2 or 20 μg of tagged Pfs230D1+ and 8110 μg of the composition of Example 6 for FIG. 5; or 8110 μg of the composition of Example 6 alone as a control. Rats received two or three injections on day 0 and 21 or day 0, 21, and 42. On day 42 or 56, rats were sacrificed, and blood was collected. After collection of the whole blood, the blood allowed to clot by leaving it undisturbed at room temperature for 4 hours. The clot was removed by centrifuging at 2,000×g for 10 minutes in a refrigerated centrifuge.
For the sera on day 42 or 56, the antibody levels against corresponding proteins were determined individually by ELISA (FIG. 2a for tagged Pfs230D1+, FIG. 5a for non-tagged Pfs230D1+).
For each group, an equal amount of serum from each rat was pooled regardless of ELISA units. […]
The standardized methodology for performing the SMFA is known in the art. […] Only midguts from mosquitoes with any eggs in their ovaries at the time of dissection were analysed (FIG. 2b for tagged Pfs230D1+, FIG. 5b for non-tagged Pfs230D1+). […]

| Molecule | reactivity to anti-Pfs230 monoclonal antibodies [1] | reactivity to anti-Pfs230 monoclonal antibodies ([1]; listed as Pfs230D1+ containing histidine-tag) | induction of functional antibodies (ELISA units, transmission reducing activity in SMFA) (P. falciparum NF54 line) | reactivity to anti-Pfs230 monoclonal antibodies ([1]; listed as Non-tagged Pfs230D1+) |
| --- | --- | --- | --- | --- |
| B1 | reacted under non-reducing conditions | reacted to two conformational dependent anti-Pfs230 monoclonal antibodies | induced functional antibodies in rats | – |
| B2 | reacted under non-reducing conditions | – | induced functional antibodies in rats | reacted to two conformational dependent anti-Pfs230 monoclonal antibodies |
